# Patent publication US20250145684A1 (IMMATICS BIOTECHNOLOGIES, published 2025)
# Biological target: T1, HLA-B*08:01 (human)
# T1 construct: MHC monomer first loaded with a UV-sensitive peptide that is cleaved by UV light and exchanged for the test peptide
# Test: UV peptide exchange ELISA
# From the text: Candidate peptides for T cell based therapies according to the present invention were further tested for their MHC binding capacity (affinity). The individual peptide-MHC complexes were produced by UV-ligand exchange, where a UV-sensitive peptide is cleaved upon UV-irradiation and exchanged with the peptide of interest as analyzed. Only peptide candidates that can effectively bind and stabilize the peptide-receptive MHC molecules prevent dissociation of the MHC complexes. To determine the yield of the exchange reaction, an ELISA was performed based on the detection of the light chain (β2m) of stabilized MHC complexes. The assay was performed as generally described in Rodenko et al. (Rodenko et al., 2006).
# 96 well MAXISorp plates (NUNC) were coated over night with 2 ug/ml streptavidin in PBS at room temperature, washed 4× and blocked for 1 h at 37° C. in 2% BSA containing blocking buffer. Refolded HLA-A*02:01/MLA-001 monomers served as standards, covering the range of 15-500 ng/ml. Peptide-MHC monomers of the UV-exchange reaction were diluted 100-fold in blocking buffer. Samples were incubated for 1 h at 37° C., washed four times, incubated with 2 ug/ml HRP conjugated anti-β2m for 1 h at 37° C., washed again and detected with TMB solution that is stopped with […]. Absorption was measured at 450 nm. Candidate peptides that show a high exchange yield (preferably higher than 50%, most preferred higher than 75%) are generally preferred for a generation and production of antibodies or fragments thereof, and/or T cell receptors or fragments thereof, as they show sufficient avidity to the MHC molecules and prevent dissociation of the MHC complexes.
row,Binder,peptide exchange yield
1,HSWTRTSV [HSWTRTSV (SEQ ID NO: 124)],50 to 75%
2,IAVDKPITL [IAVDKPITL (SEQ ID NO: 140)],20 to 50%
3,DADLREQAL [DADLREQAL (SEQ ID NO: 143)],20 to 50%
4,ILKEQSSSSF [ILKEQSSSSF (SEQ ID NO: 156)],20 to 50%
5,DLRNKIIA [DLRNKIIA (SEQ ID NO: 159)],20 to 50%
6,DQRSRATL [DQRSRATL (SEQ ID NO: 134)],20 to 50%
7,EYLETKRLAF [EYLETKRLAF (SEQ ID NO: 135)],10 to 20%
8,FAFGEPREL [FAFGEPREL (SEQ ID NO: 104)],20 to 50%
9,FQRVSSVSF [FQRVSSVSF (SEQ ID NO: 119)],50 to 75%
10,FNKLVTEL [FNKLVTEL (SEQ ID NO: 152)],20 to 50%
11,HLHLLETSI [HLHLLETSI (SEQ ID NO: 106)],20 to 50%
12,HFHNRHVF [HFHNRHVF (SEQ ID NO: 128)],50 to 75%
13,AQLKLVAL [AQLKLVAL (SEQ ID NO: 141)],20 to 50%
14,ALKLKVAEL [ALKLKVAEL (SEQ ID NO: 1)],20 to 50%
15,FPLVTPLL [FPLVTPLL (SEQ ID NO: 125)],50 to 75%
16,EPVIRTVSI [EPVIRTVSI (SEQ ID NO: 127)],50 to 75%
17,ESSAQPTAL [ESSAQPTAL (SEQ ID NO: 122)],20 to 50%
18,APLKMLALV [APLKMLALV (SEQ ID NO: 105)],20 to 50%
19,IMKKIRESY [IMKKIRESY (SEQ ID NO: 102)],50 to 75%

row,Binder,peptide exchange yield
1,DVIIKGNGL [DVIIKGNGL (SEQ ID NO: 158)],20 to 50%
2,HRILRLPAL [HRILRLPAL (SEQ ID NO: 129)],50 to 75%
3,IANLRVKNI [IANLRVKNI (SEQ ID NO: 103)],50 to 75%
4,GAGLRITAPL [GAGLRITAPL (SEQ ID NO: 111)],20 to 50%
5,HAIPHYVTM [HAIPHYVTM (SEQ ID NO: 153)],20 to 50%
6,AQRSEMVTL [AQRSEMVTL (SEQ ID NO: 120)],20 to 50%
7,DRHLTNRVL [DRHLTNRVL (SEQ ID NO: 151)],20 to 50%
8,FTQNPRVQL [FTQNPRVQL (SEQ ID NO: 116)],20 to 50%
9,DIVPPFSAF [DIVPPFSAF (SEQ ID NO: 161)],20 to 50%
10,IPASHPVLTL [IPASHPVLTL (SEQ ID NO: 109)],20 to 50%
11,FQTAHFYL [FQTAHFYL (SEQ ID NO: 146)],50 to 75%
12,DAMTKHTL [DAMTKHTL (SEQ ID NO: 110)],50 to 75%
13,DVNPVSLQL [DVNPVSLQL (SEQ ID NO: 148)],20 to 50%
14,EPFTRPVL [EPFTRPVL (SEQ ID NO: 13)],20 to 50%
15,HAMDGASHL [HAMDGASHL (SEQ ID NO: 147)],20 to 50%
16,IEQIRAVL [IEQIRAVL (SEQ ID NO: 144)],20 to 50%
17,DFYLRSSAF [DFYLRSSAF (SEQ ID NO: 12)],50 to 75%
18,ELILKRCL [ELILKRCL (SEQ ID NO: 14)],50 to 75%

# Now from value to binder:
row,peptide exchange yield,Binder
1,20 to 50%,YSQLSISL [YSQLSISL (SEQ ID NO: 121)]
2,20 to 50%,VQWKPPAL [VQWKPPAL (SEQ ID NO: 137)]
3,50 to 75%,MAPLKMLAL [MAPLKMLAL (SEQ ID NO: 11)]
4,50 to 75%,MGKFKQCF [MGKFKQCF (SEQ ID NO: 10)]
5,20 to 50%,MSTKTTSI [MSTKTTSI (SEQ ID NO: 131)]
6,20 to 50%,RSYYHPTNL [RSYYHPTNL (SEQ ID NO: 108)]
7,20 to 50%,QATPRVRIL [QATPRVRIL (SEQ ID NO: 133)]
8,20 to 50%,LPKGLKDWQA [LPKGLKDWQA (SEQ ID NO: 107)]
9,50 to 75%,TQHLTVATL [TQHLTVATL (SEQ ID NO: 138)]
10,20 to 50%,YGRIGISLF [YGRIGISLF (SEQ ID NO: 139)]
11,20 to 50%,LPAPYQHQL [LPAPYQHQL (SEQ ID NO: 130)]
12,20 to 50%,TAAEARLSL [TAAEARLSL (SEQ ID NO: 126)]
13,50 to 75%,YNLIYSMCL [YNLIYSMCL (SEQ ID NO: 142)]
14,20 to 50%,VLKTLQEL [VLKTLQEL (SEQ ID NO: 154)]
15,20 to 50%,MRILKRFLAC [MRILKRFLAC (SEQ ID NO: 115)]
16,20 to 50%,MIYRKALRL [MIYRKALRL (SEQ ID NO: 145)]

row,peptide exchange yield,Binder
1,20 to 50%,MEKGLASL [MEKGLASL (SEQ ID NO: 113)]
2,20 to 50%,SLLPFTLSF [SLLPFTLSF (SEQ ID NO: 123)]
3,20 to 50%,NALDPLSAL [NALDPLSAL (SEQ ID NO: 112)]
4,50 to 75%,MAFVKHLL [MAFVKHLL (SEQ ID NO: 118)]
5,50 to 75%,IPIQAHQI [IPIQAHQI (SEQ ID NO: 132)]
6,20 to 50%,LLKKIEHA [LLKKIEHA (SEQ ID NO: 15)]
7,20 to 50%,NRKPRTPF [NRKPRTPF (SEQ ID NO: 16)]
8,20 to 50%,TQKSVQVL [TQKSVQVL (SEQ ID NO: 149)]
9,20 to 50%,LPINNTHI [LPINNTHI (SEQ ID NO: 160)]
10,20 to 50%,PVKPKFYL [PVKPKFYL (SEQ ID NO: 114)]
11,20 to 50%,MRSSYIREL [MRSSYIREL (SEQ ID NO: 150)]
12,20 to 50%,QPYRFPQA [QPYRFPQA (SEQ ID NO: 157)]
13,50 to 75%,KMFYRKDVM [KMFYRKDVM (SEQ ID NO: 136)]
14,20 to 50%,VGPNGFKSL [VGPNGFKSL (SEQ ID NO: 117)]
15,20 to 50%,LPASFPAVL [LPASFPAVL (SEQ ID NO: 155)]
